Test results published in patent US8470780B2, “Methods and compositions related to targeting wounds, regenerating tissue, and tumors” (Sanford-Burnham Medical Research Institute, priority 2006, dated 2013).

Experiments:
CHO-K cells = assay: CHO-K cell proliferation with decorins; type: cell-based, Chinese hamster; conditions: 0.3 μg/ml/day of decorins
Method: The effect of decorin preparations on CHO-K cell proliferation was determined as described previously (Yamaguchi 1990; Yamaguchi 1988). The cells were grown in media containing fetal bovine serum that had been dialyzed in a dialysis cassette (Pierce, Rockford, Ill.). The cells were plated in duplicate at a density of 2×10^4 cells per well in 24-well plates and cultured in 600 μl of culture media. Half of the medium was replaced daily with fresh medium containing decorin. Cells were collected by trypsinization, washed and resuspended in 1 ml of PBS containing 2 μg/ml of propidium iodide (PI) and 20,000 CountBright counting beads (Invitrogen, Carlsbad, Calif.), and analyzed by counting 1,000 beads in FACS. Cell number was also determined by hemocytometer.

[1] = tested on: full thickness skin wounds; assay: Accumulation of intravenously injected decorins in wound tissue (anti-6-histidine tag staining); type: in vivo, mice; conditions: daily intravenous injections Days 3-5; evaluated Day 5
Method: Mice with full thickness skin wounds, received daily intravenous injections as indicated on Days 3-5 after the wounding (n=4 per group, 2 wounds per animal). On Day 5, the presence of decorins was evaluated with anti-6-histidine tag antibody (which stains brown) by examining two sections from each wound.
Six 8-week-old male BALB/c mice were anesthetized with intraperitoneally-injected 2.5% avertin Skin was shaved, cleaned, and disinfected with betadine and 70% alcohol. All animal experiments received approval from the IACUC of Burnham Institute for Medical Research. Treatment trials were conducted on mice that had circular, 8 mm-diameter, full thickness (including panniculus carnosus muscle) excision wounds in the dorsal skin. […]
(§1) The treatments were started three days after wounding and consisted of daily tail vein injections. […] The ratio was reversed from Day 7 based on previously determined homing profiles of CRK and CAR phage to wounds at different time-points. The wounds were inspected and photographed daily, and scored for complete re-epithelialization. […]
Frozen sections were fixed in acetone for 10 min and pre-incubated with 0.5% blocking reagent for 1 hr (NEN Life Sciences, Boston, Mass.). […] The primary antibodies were detected with corresponding secondary antibodies, and each staining experiment included slides stained with species-matched immunoglobulins as negative controls. […]

[2] = tested on: full thickness excision wounds in the dorsal skin; assay: Skin wound healing treatment with decorins; type: in vivo, mice
Method: Next, the effect of the homing peptide decorins on wound healing was examined. The daily dose of 40 μg/day was chosen based on previous decorin studies (Seidler 2006; Yang 1999). The dose was doubled on Days 4-6, coincident with the peak in TGF-β expression in wounds (Brunner 2004; Yang 1999). The treatments were started on Day 3 after wounding, when granulation tissue first forms in wounds (Brunner 2004), and continued for 7,9, or 11 days in three independent treatment experiments. Several parameters commonly used to assess wound repair and scarring were measured (Ashcroft 1999; Cheon 2006; Shah 1995). […]
as §1
Image analysis and quantification of granulation tissue/wound area, and hyperproliferative epidermis were done using ImageJ program (NIH, Bethesda, […].). The wounds were cut in the middle, one section from each side of the wound was evaluated, and the average of these two values was used in the analysis. The length of hyperproliferative epidermis and size of the wound tissue were determined from the Masson trichrome stained tissue sections. […]

B1: decorin: recombinant his-tagged human decorin, small leucine-rich chondroitin sulfate proteoglycan (protein, UniProt P07585 31-359, looked up)
Decorin: DEASGIGPEVPDDRDFEPSLGPVCPFRCQCHLRVVQCSDLGLDKVPKDLPPDTTLLDLQNNKITEIKDGDFKNLKNLHALILVNNKISKVSPGAFTPLVKLERLYLSKNQLKELPEKMPKTLQELRAHENEITKVRKVTFNGLNQMIVIELGTNPLKSSGIENGAFQGMKKLSYIRIADTNITSIPQGLPPSLTELHLDGNKISRVDAASLKGLNNLAKLGLSFNSISAVDNGSLANTPHLRELHLDNNKLTRVPGGLAEHKYIQVVYLHNNNISVVGSSDFCPPGHNTKKASYSGVSLFSNPVQYWEIQPSTFRCVYVRSAIQLGNYK
modifications: His-tag
notes: recombinant his-tagged human decorin, small leucine-rich chondroitin sulfate proteoglycan
- inhibition of CHO-K cell proliferation (CHO-K cells): inhibited the proliferation of the CHO-K cells at high concentrations
- decorin staining in skeletal muscle underlying the skin wounds [1]: No decorin-staining
- decorin staining in wounds [1]: weakly positive for decorin staining
- change in granulation tissue/scar area ([2]; Day 14 after wounding): no statistically significant changes
- prevention of scar formation ([2]; equivalent doses): inactive
